Here are results for 4 substances from EP0485563B1, “POLYETHER-SUBSTITUTED TUMOR AGENTS” (Deutsches Krebsforschungszentrum Stiftung des öffentlichen …, priority 1990, dated 1991).

One data set deals with Ovarialcarcinom. Briefly: Whole-body distribution of radioiodine-labelled agent in tumour-bearing rat (Fig. 4, Fig. 5). Format: in vivo, BD IX Ratte. The protocol:
(§1) Bei allen diesen Anwendungsversuchen wurden immer 300 µC = 11,1 MBq verabreicht. ES zeigten sich mit den eingesetzten Mitteln, nämlich 1a und 1c und die Verbindung aus Beispiel 2 eine Konzentration von mindestens 30 % des Mittels an der gewünschten Stelle, also am Tumor. Die beigefügte Fig. 4 zeigt das Bild einer BDIX-Rattemit Ovarialcarcinom 42 h nach Injektion, die mit ¹³¹J-HOPAD-CMPEG, also ¹³¹J-Hydroxyphenyl-1-aminomethan-1,1-diphosphonat- Cyanurchlorid aktiviertes Polyethylenglykol (n = ca. 100 bis 110) in einer Menge von 300 µC behandelt war. Das Bild zeigt, daß ganz unten, im Tumor ca. 30 +/- 2 % des Mittels konzentriert sind, während in der Mitte die Leber ca. 10 % zeigt und die Schilddrüse, die oberhalb der Leber sichtbar ist, weit weniger als 2 % des Mittels aufgenommen hat. Diese %-Angaben beziehen sich auf die Gesamtmenge an die mit radiojadmarkierten Mittel im Gesamtkörper der Ratte.
Die beigefügte Fig. 5 zeigt die Messung einer mit ¹³¹I TOP-(CMPEG)4 behandelten BD IX Ratte (auch hier Ovarialcarcinom). Es zeigt sich ein ähnliches Ergebnis wie das von Fig. 4.
Von der gesamten Körperaktivität an radioaktivem Jod finden sich nach 150 h etwa 23 % im Tumor, etwa 12 % in der Leber, etwa 5 % im Blut und etwa 3 - 4 % jeweils in den Muskeln und in der Schilddrüse. Der Rest ist natürlich, wie auch bei der Aufnahme von Fig 4, über den restlichen Körper verteilt.

In data set [1] the test system is experimentelle Tumoren und Xenotransplantate, human. Briefly: Accumulation (concentration) of radiolabelled agents in experimental tumours and human xenografts. Format: in vivo, Ratte; Nacktmaus. Conditions: 300 µC = 11,1 MBq administered; 1a and 1c in all tumours/xenografts of the 2nd table, compound of Beispiel 2 only in Walker Carcinosarcom, Osteosarcom, Ovarialcarcinom (O-342).
Description: Schließlich wurden für CT-Untersuchungen die folgenden Verbindungen gemäß Beispiel 2 hergestellt: • 4a) Tri-jod-phenol-CMPEG • 4b) Tri-jod-benzoesäure-AMPEG • 4c) Iodoxaminsäure-(AMPEG)₂ Die Anreicherung (Konzentrierung) dieser Mittel wurde an folgenden experimentellen Tumoren und an folgenden Tiermodellen geprüft:
Alle diese experimentellen Tumoren und Xenotransplantate wurden mit den Verbindungen a und c gemäß Beispiel 1 (also 1a und 1c) und drei davon, nämlich das Walker Carcinosarcom, das Osteosarcom und das Ovarialcarcinom (O-342) auch mit dem Diphosphonat gemäß Beispiel 2 untersucht.
as §1

A short description of data set [2]: Photodynamic activity of the photosensitiser.
Setting [3] is: BDIX rat with Ovarialcarcinom, 42 h after injection, 300 µC, % of total labelled agent in whole body.
[4] abbreviates: BD IX rat, Ovarialcarcinom, after 150 h, % of total body activity of radioactive iodine.

For “¹³¹-I-Hydroxyphenylaminomethandiphosphonat- (CMPEG)₂ [Verbindung aus Beispiel 2]”, in the data set with Ovarialcarcinom (setting [3]), the Leber result is “ca. 10%”, the Schilddrüse is < 2% and the “im Tumor konzentriert” value is recorded as “ca. 30 +/- 2%”. The “Konzentration des Mittels an der gewünschten Stelle, also am Tumor” value in data set [1] is on record as ≥ 30%.

For the substance “¹³¹I-Tetra(hydroxyphenyl)-porphin-(CMPEG)₄ [1a]”, in the data set with Ovarialcarcinom (setting [4]), the “im Blut” value was ~5%, the “im Tumor” value is given as ~23%, the “in den Muskeln” value is given as 3 - 4% and the “in der Leber” value is reported as ~12%. Besides, the “in der Schilddrüse” value in the data set on Ovarialcarcinom (setting [4]) is recorded as 3 - 4%. Moreover, in data set [1], the “Konzentration des Mittels an der gewünschten Stelle, also am Tumor” value is ≥ 30%.

In the case of “¹¹¹-In-Tetra-(hydroxyphenoxy)-phthalocyanin-(CMPEG)₄ [1c]”, the “Konzentration des Mittels an der gewünschten Stelle, also am Tumor” value in data set [1] was ≥ 30%.

Regarding “Tetra-(4 Amino-phenoxy)-phthalocyanin -CMPEG [TAPPC-CMPEG]”, in data set [2], the “"bleaching"” value is listed as “kaum "bleaching" festzustellen” and the “fotodynamische Aktivität” value is reported as “sehr hohe fotodynamische Aktivität bis über 720 nm”.
